{
  "source": "paper PMC11677724",
  "about": "“Preclinical Study of a Dual-Target Molecular Probe Labeled with ^68Ga Targeting SSTR2 and FAP” (Pharmaceuticals, 2024)",
  "key": {"[1]": {"test_system": "NCI-H727 cells (SSTR2/FAP, positive)", "assay": "Cell uptake and blocking in NCI-H727 cells", "assay_type": "cell-based", "details": "1 h", "description": "The NCI-H727 and Mc38 cell lines were supplied by the Stem Cell Bank of the Chinese Academy of Sciences and were cultivated in Roswell Park Memorial Institute (RPMI-1640) medium with 10% (v/v) fetal bovine serum (FBS) at 37 °C with 5% CO2. All cells were cultured until they reached 80–90% confluence before undergoing trypsinization.\nNCI-H727 cells were placed in a 24-well plate and cultivated for 24 h. The original medium was removed, and fresh RPMI-1640 was added. Then, 100 µL of [^68Ga]Ga-TATE-46, [^68Ga]Ga-DOTA-TATE, or [^68Ga]Ga-FAPI-46 (1.48×10^4 Bq) was added to each well, and the cells were incubated for 30 min, 1 h, 2 h, and 4 h (with three replicates for each time point). The culture medium was taken away, and the cells were washed twice with cold PBS (pH 7.4). Then, the cells were lysed using 0.5 mL of 1 M NaOH.\nIn blocking experiments, an excessive amount of unlabeled FAPI-46, DOTA-TATE, or FAPI-46 + DOTA-TATE (10 µg/well) was added as an inhibitor along with [^68Ga]Ga-TATE-46 to the cells. After 1 h, the cells were processed using the same method. Finally, the cell lysates were gathered, and the radioactivity was measured using a γ-counter. Mc38 cells were used as a negative control, with only [^68Ga]Ga-TATE-46 (1.48 × 10^4 Bq/well, 100 µL) added, and the rest of the procedure was followed as described above."}, "[2]": {"assay": "Ex vivo biodistribution in NCI-H727 tumor-bearing mice", "details": "female, BALB/c nude, mouse, in vivo, 1.48 MBq, total radioactivity, γ-counter, mean ± SD, n=3; for tissue uptake at 0.5 h: 0.5 h p.i.; for tissue uptake at 1 h: 1 h p.i.; for tissue uptake at 2 h: 2 h p.i.; for tissue uptake at 4 h: 4 h p.i.", "description": "Female BALB/c nude mice were obtained from Charles River Laboratories (Beijing, China). […] Approximately 5 × 10^6 cells were implanted into the right shoulder of each mouse to establish an NCI-H727 tumor model and Mc38 tumor model. Once the tumor volume reached 200–300 mm^3, the mice were used for imaging or biodistribution studies. All animal experiments were carried out in accordance with the National Institutes of Health Guidelines for the Care and Use of Laboratory Animals and were approved by the Animal Protection and Utilization Committee of the General Hospital of the PLA (Approval No.: S2023-209-1).\nThe NCI-H727 tumor-bearing mice were randomly assigned to four groups (with three mice in each group) and were injected with [^68Ga]Ga-TATE-46 (1.48 MBq, 100 µL). The mice were put to death at 0.5, 1, 2, and 4 h post-injection (p.i.). The tissues and organs of concern were gathered, weighed, and measured for radioactivity using a γ-counter. Additionally, [^68Ga]Ga-DOTA-TATE and [^68Ga]Ga-FAPI-46 were used as control groups in the biodistribution study of the NCI-H727 tumor model at 1 h p.i. After performing time decay correction, the radiotracer uptake in each tissue and organ was calculated as %ID/g."}, "[3]": {"details": "NCI-H727 tumor, read-out: Biodistribution, Tumor (tumor uptake)"}, "[4]": {"details": "NCI-H727 tumor-bearing mice, read-out: Biodistribution, Blood"}, "[5]": {"details": "NCI-H727 tumor-bearing mice, read-out: Biodistribution, Bone"}, "[6]": {"details": "NCI-H727 tumor-bearing mice, read-out: Biodistribution, Brain"}, "[7]": {"details": "NCI-H727 tumor-bearing mice, read-out: Biodistribution, Heart"}, "[8]": {"details": "NCI-H727 tumor-bearing mice, read-out: Biodistribution, Intestine"}, "[9]": {"details": "NCI-H727 tumor-bearing mice, read-out: Biodistribution, Kidney"}, "[10]": {"details": "NCI-H727 tumor-bearing mice, read-out: Biodistribution, Liver"}, "[11]": {"details": "NCI-H727 tumor-bearing mice, read-out: Biodistribution, Lung"}, "[12]": {"details": "NCI-H727 tumor-bearing mice, read-out: Biodistribution, Muscle"}, "[13]": {"details": "NCI-H727 tumor-bearing mice, read-out: Biodistribution, Spleen"}, "[14]": {"details": "NCI-H727 tumor-bearing mice, read-out: Biodistribution, Stomach"}},
  "note": "Like-named read-outs stand apart in the source and are kept apart here.",
  "data": [
    {"smiles": "C[C@@H](O)[C@H](NC(=O)[C@@H]1CSSC[C@H](NC(=O)[C@@H](Cc2ccccc2)NC(=O)CCCCCNC(=O)CCCCCNC(=O)[C@H](Cc2ccccc2)NC(=O)C(CCC(=O)N[C@@H](Cc2ccccc2)C(=O)NCCCCCC(=O)NCCCCCC(=O)N2CCN(CCCN(C)c3ccc4nccc(C(=O)NCC(=O)N5CC(F)(F)C[C@H]5C#N)c4c3)CC2)NC(=O)CN2CCN(CC(=O)O)CCN(CC(=O)O)CCN(CC(=O)O)CC2)C(=O)N[C@@H](Cc2ccc(O)cc2)C(=O)N[C@H](Cc2c[nH]c3ccccc23)C(=O)N[C@@H](CCCCN)C(=O)N[C@@H]([C@@H](C)O)C(=O)N1)C(=O)O", "note": "(some centres unmarked) [[^68Ga]Ga-TATE-46, metal not drawn]", "values": [
      {"measurement": "cellular uptake in NCI-H727 cells compared with [68Ga]Ga-DOTA-TATE and [68Ga]Ga-FAPI-46", "setting": "[1]; 1.48×10^4 Bq/well, 30 min, 2 h, 4 h, γ-counter, n = 3, all p < 0.001", "result": "significantly higher"},
      {"measurement": "cellular uptake in NCI-H727 cells on co-incubation with unlabeled TATE, FAPI-46, or TATE + FAPI-46", "setting": "[1]; blocker at 1000 times the molar amount (10 µg/well), all p < 0.01", "result": "significant reduction"},
      {"measurement": "tissue uptake at 0.5 h", "setting": "[2]; [3]", "result": "3.56 ± 0.69", "unit": "%ID/g"},
      {"measurement": "tissue uptake at 0.5 h", "setting": "[2]; [4]", "result": "13.5 ± 2.03", "unit": "%ID/g"},
      {"measurement": "tissue uptake at 0.5 h", "setting": "[2]; [5]", "result": "4.84 ± 0.25", "unit": "%ID/g"},
      {"measurement": "tissue uptake at 0.5 h", "setting": "[2]; [6]", "result": "0.37 ± 0.06", "unit": "%ID/g"},
      {"measurement": "tissue uptake at 0.5 h", "setting": "[2]; [7]", "result": "4.71 ± 0.3", "unit": "%ID/g"},
      {"measurement": "tissue uptake at 0.5 h", "setting": "[2]; [8]", "result": "4.58 ± 2.16", "unit": "%ID/g"},
      {"measurement": "tissue uptake at 0.5 h", "setting": "[2]; [9]", "result": "23.9 ± 8.92", "unit": "%ID/g"},
      {"measurement": "tissue uptake at 0.5 h", "setting": "[2]; [10]", "result": "10 ± 2.51", "unit": "%ID/g"},
      {"measurement": "tissue uptake at 0.5 h", "setting": "[2]; [11]", "result": "7.03 ± 1.58", "unit": "%ID/g"},
      {"measurement": "tissue uptake at 0.5 h", "setting": "[2]; [12]", "result": "2.4 ± 0.48", "unit": "%ID/g"},
      {"measurement": "tissue uptake at 0.5 h", "setting": "[2]; [13]", "result": "4.48 ± 0.72", "unit": "%ID/g"},
      {"measurement": "tissue uptake at 0.5 h", "setting": "[2]; [14]", "result": "6.84 ± 0.73", "unit": "%ID/g"},
      {"measurement": "tissue uptake at 1 h", "setting": "[2]; [3]", "result": "7.53 ± 1.13", "unit": "%ID/g"},
      {"measurement": "tissue uptake at 1 h", "setting": "[2]; [4]", "result": "11.3 ± 2.53", "unit": "%ID/g"},
      {"measurement": "tissue uptake at 1 h", "setting": "[2]; [5]", "result": "4.8 ± 1.08", "unit": "%ID/g"},
      {"measurement": "tissue uptake at 1 h", "setting": "[2]; [6]", "result": "0.36 ± 0.03", "unit": "%ID/g"},
      {"measurement": "tissue uptake at 1 h", "setting": "[2]; [7]", "result": "4.15 ± 0.83", "unit": "%ID/g"},
      {"measurement": "tissue uptake at 1 h", "setting": "[2]; [8]", "result": "3.74 ± 0.72", "unit": "%ID/g"},
      {"measurement": "tissue uptake at 1 h", "setting": "[2]; [9]", "result": "37 ± 3.89", "unit": "%ID/g"},
      {"measurement": "tissue uptake at 1 h", "setting": "[2]; [10]", "result": "10.5 ± 2.84", "unit": "%ID/g"},
      {"measurement": "tissue uptake at 1 h", "setting": "[2]; [11]", "result": "5.51 ± 0.97", "unit": "%ID/g"},
      {"measurement": "tissue uptake at 1 h", "setting": "[2]; [12]", "result": "2.39 ± 0.49", "unit": "%ID/g"},
      {"measurement": "tissue uptake at 1 h", "setting": "[2]; [13]", "result": "4.01 ± 0.79", "unit": "%ID/g"},
      {"measurement": "tissue uptake at 1 h", "setting": "[2]; [14]", "result": "6.68 ± 0.95", "unit": "%ID/g"},
      {"measurement": "tissue uptake at 2 h", "setting": "[2]; [3]", "result": "7.08 ± 0.88", "unit": "%ID/g"},
      {"measurement": "tissue uptake at 2 h", "setting": "[2]; [4]", "result": "6.13 ± 0.61", "unit": "%ID/g"},
      {"measurement": "tissue uptake at 2 h", "setting": "[2]; [5]", "result": "4.65 ± 0.87", "unit": "%ID/g"},
      {"measurement": "tissue uptake at 2 h", "setting": "[2]; [6]", "result": "0.23 ± 0.04", "unit": "%ID/g"},
      {"measurement": "tissue uptake at 2 h", "setting": "[2]; [7]", "result": "2.41 ± 0.35", "unit": "%ID/g"},
      {"measurement": "tissue uptake at 2 h", "setting": "[2]; [8]", "result": "2.85 ± 1.12", "unit": "%ID/g"},
      {"measurement": "tissue uptake at 2 h", "setting": "[2]; [9]", "result": "26.5 ± 4.77", "unit": "%ID/g"},
      {"measurement": "tissue uptake at 2 h", "setting": "[2]; [10]", "result": "8.4 ± 0.12", "unit": "%ID/g"},
      {"measurement": "tissue uptake at 2 h", "setting": "[2]; [11]", "result": "3.67 ± 0.68", "unit": "%ID/g"},
      {"measurement": "tissue uptake at 2 h", "setting": "[2]; [12]", "result": "2.36 ± 0.14", "unit": "%ID/g"},
      {"measurement": "tissue uptake at 2 h", "setting": "[2]; [13]", "result": "3.05 ± 0.38", "unit": "%ID/g"},
      {"measurement": "tissue uptake at 2 h", "setting": "[2]; [14]", "result": "6.18 ± 0.43", "unit": "%ID/g"},
      {"measurement": "tissue uptake at 4 h", "setting": "[2]; [3]", "result": "6.48 ± 1.82", "unit": "%ID/g"},
      {"measurement": "tissue uptake at 4 h", "setting": "[2]; [4]", "result": "4.09 ± 0.21", "unit": "%ID/g"},
      {"measurement": "tissue uptake at 4 h", "setting": "[2]; [5]", "result": "4.49 ± 0.06", "unit": "%ID/g"},
      {"measurement": "tissue uptake at 4 h", "setting": "[2]; [6]", "result": "0.24 ± 0.02", "unit": "%ID/g"},
      {"measurement": "tissue uptake at 4 h", "setting": "[2]; [7]", "result": "1.9 ± 0.09", "unit": "%ID/g"},
      {"measurement": "tissue uptake at 4 h", "setting": "[2]; [8]", "result": "1.82 ± 1.11", "unit": "%ID/g"},
      {"measurement": "tissue uptake at 4 h", "setting": "[2]; [9]", "result": "22.4 ± 6.23", "unit": "%ID/g"},
      {"measurement": "tissue uptake at 4 h", "setting": "[2]; [10]", "result": "8.08 ± 0.87", "unit": "%ID/g"},
      {"measurement": "tissue uptake at 4 h", "setting": "[2]; [11]", "result": "2.69 ± 0.17", "unit": "%ID/g"},
      {"measurement": "tissue uptake at 4 h", "setting": "[2]; [12]", "result": "2.36 ± 0.32", "unit": "%ID/g"},
      {"measurement": "tissue uptake at 4 h", "setting": "[2]; [13]", "result": "3.04 ± 0.09", "unit": "%ID/g"},
      {"measurement": "tissue uptake at 4 h", "setting": "[2]; [14]", "result": "5.05 ± 0.01", "unit": "%ID/g"}
    ]}
  ]
}
